In paper PMC12744750 (Plant Communications, 2025):
Ends that are not written are not given here.

T1: ETR1 1-407 (Arabidopsis thaliana)
T1 chain: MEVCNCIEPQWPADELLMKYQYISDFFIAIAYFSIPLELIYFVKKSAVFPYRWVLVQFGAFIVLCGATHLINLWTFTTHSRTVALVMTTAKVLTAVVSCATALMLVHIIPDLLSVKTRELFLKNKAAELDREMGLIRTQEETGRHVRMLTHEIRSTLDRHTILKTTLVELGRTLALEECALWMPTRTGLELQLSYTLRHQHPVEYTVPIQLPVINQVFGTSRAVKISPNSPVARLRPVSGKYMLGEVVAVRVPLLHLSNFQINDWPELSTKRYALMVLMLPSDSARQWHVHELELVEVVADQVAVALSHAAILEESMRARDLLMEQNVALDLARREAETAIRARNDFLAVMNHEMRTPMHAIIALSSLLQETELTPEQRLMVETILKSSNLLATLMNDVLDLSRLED

T2: ETR1 1-598 (Arabidopsis thaliana)
T2 chain: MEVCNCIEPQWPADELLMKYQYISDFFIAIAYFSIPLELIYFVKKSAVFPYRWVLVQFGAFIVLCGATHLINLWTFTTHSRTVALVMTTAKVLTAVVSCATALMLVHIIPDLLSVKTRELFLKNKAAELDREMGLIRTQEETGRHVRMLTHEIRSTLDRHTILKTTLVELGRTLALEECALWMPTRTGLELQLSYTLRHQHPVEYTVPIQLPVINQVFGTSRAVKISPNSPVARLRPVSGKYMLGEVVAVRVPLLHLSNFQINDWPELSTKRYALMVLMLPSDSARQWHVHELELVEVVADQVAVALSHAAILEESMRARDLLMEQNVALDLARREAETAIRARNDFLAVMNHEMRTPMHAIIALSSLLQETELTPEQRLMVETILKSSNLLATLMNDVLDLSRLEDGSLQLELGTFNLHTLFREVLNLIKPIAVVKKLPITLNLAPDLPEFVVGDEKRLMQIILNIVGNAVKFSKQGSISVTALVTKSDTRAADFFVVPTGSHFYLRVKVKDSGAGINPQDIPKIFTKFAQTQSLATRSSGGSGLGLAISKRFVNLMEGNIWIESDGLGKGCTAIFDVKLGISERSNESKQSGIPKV

T3: ETR1 1-157 (Arabidopsis thaliana)
T3 chain: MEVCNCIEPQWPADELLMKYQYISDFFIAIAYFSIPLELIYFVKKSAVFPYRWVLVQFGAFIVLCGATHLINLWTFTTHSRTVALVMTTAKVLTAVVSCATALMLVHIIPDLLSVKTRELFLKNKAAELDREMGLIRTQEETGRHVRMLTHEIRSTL

T4: ETR1 1-307 (Arabidopsis thaliana)
T4 chain: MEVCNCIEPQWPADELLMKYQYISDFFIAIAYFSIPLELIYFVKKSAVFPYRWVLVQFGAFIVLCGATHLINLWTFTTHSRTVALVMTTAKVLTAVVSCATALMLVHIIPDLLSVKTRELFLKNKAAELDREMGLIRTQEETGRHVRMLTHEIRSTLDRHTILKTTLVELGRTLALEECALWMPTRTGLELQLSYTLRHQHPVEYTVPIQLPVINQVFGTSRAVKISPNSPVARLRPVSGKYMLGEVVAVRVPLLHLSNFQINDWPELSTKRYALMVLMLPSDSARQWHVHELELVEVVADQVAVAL

B1: ETR1 with a C-terminal HA tag (ETR1:HA), pro35S::ETR1:HA (receptor, Arabidopsis, UniProt P49333 1-738, looked up)
chain: MEVCNCIEPQWPADELLMKYQYISDFFIAIAYFSIPLELIYFVKKSAVFPYRWVLVQFGAFIVLCGATHLINLWTFTTHSRTVALVMTTAKVLTAVVSCATALMLVHIIPDLLSVKTRELFLKNKAAELDREMGLIRTQEETGRHVRMLTHEIRSTLDRHTILKTTLVELGRTLALEECALWMPTRTGLELQLSYTLRHQHPVEYTVPIQLPVINQVFGTSRAVKISPNSPVARLRPVSGKYMLGEVVAVRVPLLHLSNFQINDWPELSTKRYALMVLMLPSDSARQWHVHELELVEVVADQVAVALSHAAILEESMRARDLLMEQNVALDLARREAETAIRARNDFLAVMNHEMRTPMHAIIALSSLLQETELTPEQRLMVETILKSSNLLATLMNDVLDLSRLEDGSLQLELGTFNLHTLFREVLNLIKPIAVVKKLPITLNLAPDLPEFVVGDEKRLMQIILNIVGNAVKFSKQGSISVTALVTKSDTRAADFFVVPTGSHFYLRVKVKDSGAGINPQDIPKIFTKFAQTQSLATRSSGGSGLGLAISKRFVNLMEGNIWIESDGLGKGCTAIFDVKLGISERSNESKQSGIPKVPAIPRHSNFTGLKVLVMDENGVSRMVTKGLLVHLGCEVTTVSSNEECLRVVSHEHKVVFMDVCMPGVENYQIALRIHEKFTKQRHQRPLLVALSGNTDKSTKEKCMSFGLDGVLLKPVSLDNIRDVLSDLLEPRVLYEGM
notes: the ETR1 cDNA in pEarlyGate301; also called ETHYLENE RESPONSE 1; source: N. benthamiana leaves, transient expression by Agrobacterium infiltration, in protein extract; not shown: HA, C-terminal, kept
B2: PLS linked to a C-terminal GFP (PLS:GFP), pro35S::PLS:GFP (peptide, UniProt Q8LLV8 1-36, looked up)
chain: MKPRLCFNFRRRSISPCYISISYLLVAKLFKLFKIH-{GFP}
modifications: cysteine pairing not given here
notes: POLARIS (PLS) peptide of Arabidopsis thaliana, gene AT4G39403; the PLS gene without the stop codon (printed as 105 bp) in pEarlyGate103; source: N. benthamiana leaves, transient expression by Agrobacterium infiltration, in protein extract; not shown: GFP, C-terminal, kept

Experiments:
pPLS::GUS = pPLS::GUS expression in root tips after hormone treatment; assay type: in vivo, Arabidopsis; conditions: 10 µM ACC plus 10 μM 2,4-D
From the text: Figure S15. The link between auxi n and et hyl ene si gnal l i ng ef f ect s on PLS transcription, and downstream ef f ect s on et hyl ene responses.
(A) Ant agoni sm between auxi n and et hyl ene on PLS expressi on.
Auxin posit ively regulates PLS gene transcription, whi l e ACC (ethylene pr ecur sor ) […]
Lef t upper panel: pPLS::GUS […]
expr ession in the Arabidopsis root tip under standard gr owt h conditions. Lef t lower panel: pPLS::PLS:GFP expr ession in the Arabidopsis root tip under standard gr owt h conditions.
Ri ght panel: pPLS::GUS expr ession in root tips treated wi t h 10 μM 2,4-D, showing ect opic […]
10 μM 2,4-D plus 10 μm ACC, showing the ant agonism of the inductive eff ect of 2,4-D on PLS::GUS expr ession. Images ar e representative of 10 independently gr own roots. […]

pPLS::PLS:GFP = assay: PLS:GFP fluorescence in root tip after ACC treatment; assay type: in vivo, Arabidopsis; conditions: 0, 1 or 10 μM ACC, 2 or 24 hours, n = 17
From the text: Figur e S15. The link between auxin and ethylene signalling effects on PLS transcription, and downstr eam effects on […]
in the root tip after ACC treatment. […]
Laser settings were mai nt ai ned at 21% 488 nm 20 mW, 970 V gain.
Images are representative of 10 independetly grown roots. Scale bars […]
Lower panel: Quanti fi cati on of PLS-GFP fluorescence after ACC treatment, detected in seedlings expressing the pPLS::PLS:GFP construct. Seedling root tips at seven d.a.g were imaged by CLSM after treatment with 0, 1 or 10 μM ACC for either 2 or 24 hours.
Fl uorescence intensity in each root was measured using ImageJ and the mean intensity for each treatment was calculated. Error bars show
± 1 standard error, n = 17.

[1] = biological target: B2; assay: co-IP; anti-GFP beads on protein extract of N. benthamiana leaves co-expressing PLS:GFP and ETR1:HA; blot with anti-HA; with or without EDTA; conditions: partners not purified
ETR1 1-407 = biological target: T1, ETR1 1-407; assay: MST
ETR1 1-598 = biological target: T2, ETR1 1-598; assay: MST
ETR1 1-157 = biological target: T3, ETR1 1-157; assay: MST
ETR1 1-307 = biological target: T4, ETR1 1-307; assay: MST
[2] = biological target: B1; assay: co-IP; anti-HA beads on protein extract of N. benthamiana leaves co-expressing ETR1:HA and PLS:GFP or GFP, 3 days after infiltration; blot with anti-GFP; with 0.5 μM CuSO4 or 2 mM EDTA added to the extract; conditions: partners not purified

Molecule: NC1(C(=O)O)CC1 [ACC, 1-aminocyclopropane-1-carboxylic acid]
- effect on auxin-induced PLS expression (pPLS::GUS): ant agonizes the inductive eff ect s of auxin
- expression of PLS:GFP in root tip (pPLS::PLS:GFP): downr egulated

Molecule: B1
- fold co-precipitated with 0.5 μM copper sulfate against 2 mM EDTA [1]: ~3 fold

Molecule: MKPRLCFNFRRRSISPCYISISYLLVAKLFKLFKIH (cysteine pairing not given here; also: fluorescently labelled) [synthetic full-length POLARIS (PLS) peptide, PLS(FL)]
- Kd (ETR1 1-407): 1.65 µM
- Kd (ETR1 1-598): 2.92 µM
- Kd (ETR1 1-157): 1.52 µM
- Kd (ETR1 1-307): 1.79 µM

Molecule: B2
- fold co-precipitated with 0.5 μM copper sulfate against 2 mM EDTA [2]: ~3 fold
